We go through 2 molecules from patent US12576024B2, “Compositions comprising Propionibacterium acnes bacteriophages for treating acne” (priority 2017, dated 2026).

For the assay, the system named is P. acnes biofilms. The assay can be described thus: Screen of enzymes that degrade P. acnes biofilms (crystal violet). Conditions: enzymes 0.01 mg/mL, 30° C., 30 mins. The class given is cell-based. How it is done:
FIG. 4. A screen to select enzymes that can degrade P. acnes biofilms. P. acnes was grown in polystyrene microtiter plates to stimulate biofilm production. Enzymes were added at 0.01 mg/mL to the wells and incubated at 30° C. for 30 mins. The degraded biofilm was washed away with phosphate buffered saline (PBS), and the residual biofilm in each well was quantified by staining with crystal violet and recording absorbance at 590 nm.
Without being bound by any scientific theory, we hypothesized that biofilms might present a significant barrier to phage killing of sessile P. acnes cells. […] In order to determine whether biofilm degradation would improve phage killing, a number of enzymes was screened to find a BDE specific for P. acnes. The screen comprised three classes of enzymes that might degrade types of materials that may be found in biofilms: DNA, polysaccharides, and proteins.

“Also recorded” adds a separate entry of the source.

B1: dispersin: a glycoside hydrolase from Aggregatibacter actinomycetemcomitans, biofilm degrading enzyme (protein)
chain: MNCCVKGNSIYPQKTSTKQTGLMLDIARHFYSPEVIKSFIDTISLSGGNFLHLHFSDHENYAIESHLLNQRAENAVQGKDGIYINPYTGKPFLSYRQLDDIKAYAKAKGIELIPELDSPNHMTAIFKLVQKDRGVKYLQGLKSRQVDDEIDITNADSITFMQSLMSEVIDIFGDTSQHFHIGGDEFGYSVESNHEFITYANKLSYFLEKKGLKTRMWNDGLIKNTFEQINPNIEITYWSYDGDTQDKNEAAERRDMRVSLPELLAKGFTVLNYNSYYLYIVPKASPTFSQDAAFAAKDVIKNWDLGVWDGRNTKNRVQNTHEIAGAALSIWGEDAKALKDETIQKNTKSLLEAVIHKTNGDE
modifications: Aggregatibacter actinomycetemcomitans
notes: a glycoside hydrolase from Aggregatibacter actinomycetemcomitans, biofilm degrading enzyme
As to B1, the “P. acnes biofilm degradation (residual biofilm, absorbance at 590 nm)” value was “best glycoside depolymerase amongst those tested; also recorded: best rates of biofilm degradation”.

B2: proteinase K: protease screened as P. acnes biofilm degrading enzyme (protein, UniProt P06873 106-384, looked up)
Proteinase K: AAQTNAPWGLARISSTSPGTSTYYYDESAGQGSCVYVIDTGIEASHPEFEGRAQMVKTYYYSSRDGNGHGTHCAGTVGSRTYGVAKKTQLFGVKVLDDNGSGQYSTIIAGMDFVASDKNNRNCPKGVVASLSLGGGYSSSVNSAAARLQSSGVMVAVAAGNNNADARNYSPASEPSVCTVGASDRYDRRSSFSNYGSVLDIFGPGTSILSTWIGGSTRSISGTSMATPHVAGLAAYLMTLGKTTAASACRYIADTANKGDLSNIPFGTVNLLAYNNYQA
On to B2, for which the “P. acnes biofilm degradation (residual biofilm, absorbance at 590 nm)” value is “good activity”.
